Experimental data from patent US20120165503A1 (Merck Sharp & Dohme, published 2012).

B1: OXM-Q3E (peptide)
peptide: HSEGTFTSDYSKYLDSRRAQDFVQWLMNTKRNRNNIA
notes: Native OXM with Glu instead of Gln at position 3; the entry already carries the change; also called OXM8 (Q3E); GLP-1 mimetic

Key:
[1] = molecular target: T1, glucagon receptor of wild-type mice (liver, in vivo) (mouse, UniProt Q61606 27-485); test: in vivo competition with 125I-glucagon, liver of wild-type mice, s.c. dosing
T1 construct: whole, on cells; Receptor occupancy measured in vivo in liver; also called GCGR; GGCR

human glucagon receptor = human glucagon receptor (human, UniProt P47871 26-477); test: cell-based or functional assay
human GLP-1 receptor [2] = molecular target: T2, human GLP-1 receptor (human, UniProt P43220 24-463); test: cell-based or functional assay
human GLP-1 receptor [3] = molecular target: T2, human GLP-1 receptor; test: receptor binding affinity (GLP-1R IC50); assay format not described

Chain of human glucagon receptor (P47871 26-477): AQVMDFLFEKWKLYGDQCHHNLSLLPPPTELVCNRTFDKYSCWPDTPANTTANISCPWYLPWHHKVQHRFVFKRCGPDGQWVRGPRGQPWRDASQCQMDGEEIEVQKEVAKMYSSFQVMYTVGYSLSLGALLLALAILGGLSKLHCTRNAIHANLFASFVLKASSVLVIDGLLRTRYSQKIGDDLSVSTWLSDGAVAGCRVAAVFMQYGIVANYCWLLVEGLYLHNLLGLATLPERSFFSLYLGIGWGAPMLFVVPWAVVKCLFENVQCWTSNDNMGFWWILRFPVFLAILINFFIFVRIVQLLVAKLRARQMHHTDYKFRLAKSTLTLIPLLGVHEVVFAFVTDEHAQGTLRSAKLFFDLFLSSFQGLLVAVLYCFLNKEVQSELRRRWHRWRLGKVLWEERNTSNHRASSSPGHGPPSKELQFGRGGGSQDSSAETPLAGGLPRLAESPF
T1 sequence (Q61606 27-485): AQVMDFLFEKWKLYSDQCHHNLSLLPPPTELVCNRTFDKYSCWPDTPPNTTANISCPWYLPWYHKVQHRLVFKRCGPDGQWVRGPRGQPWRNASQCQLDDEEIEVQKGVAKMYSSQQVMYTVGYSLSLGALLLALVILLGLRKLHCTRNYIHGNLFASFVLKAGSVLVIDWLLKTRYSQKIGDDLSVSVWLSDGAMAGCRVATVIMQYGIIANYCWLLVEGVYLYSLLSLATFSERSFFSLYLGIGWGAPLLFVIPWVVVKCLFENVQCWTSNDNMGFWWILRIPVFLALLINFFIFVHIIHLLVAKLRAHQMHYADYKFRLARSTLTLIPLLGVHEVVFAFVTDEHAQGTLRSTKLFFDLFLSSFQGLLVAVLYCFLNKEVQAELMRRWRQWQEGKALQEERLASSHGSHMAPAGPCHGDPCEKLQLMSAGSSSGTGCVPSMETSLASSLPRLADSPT

| Binder | binding result [1] | % Activation of GCGR (human glucagon receptor) | GCGR EC50 (human glucagon receptor) | GLP-1R EC50 (human GLP-1 receptor [2]) | IC50 (human GLP-1 receptor [3]) |
| --- | --- | --- | --- | --- | --- |
| B1 | no binding | 17% | 1640 nM | 12.4 nM | 237 nM |
| HSDGTFTSDYSKYLDSRRAQDFVQWLMNTKRNRNNIA [OXM-Q3D] | – | 1% | 3400 nM | 2.3 nM | – |
